Source: patent US20050065102, “Medicinal compositions” (published 2005)

Target: HMG-I (HMGA1a), partially purified (Homo sapiens, UniProt P17096 P17096:2-107)
Test: pulldown; affinity column, eluted with 1 M NaCl; identified by peptide sequencing
Details: tags: ammonium sulfate and DEAE fractions from hypoxic SK-N-SH
Protocol: The above fraction (III) was dialyzed twice against 5 L of 50 mM Tris-HCl buffer (pH 7.5) at 4° C. for 4 hours. Then, the resulting dialysate was applied to 5′-amino-2′-O-methyl oligo RNA (5′-[…]-3′, SEQ ID NO: 24)-coupled CNBr-activated Sepharose 4B (manufactured by Pharmacia Biotech) affinity column. The above affinity column was washed with 10 ml of the above incubation buffer and then eluted with 15 ml of the incubation buffer containing 1 M NaCl to give a fraction having a binding activity to the RNA probe of No. 5 [fraction (IV), FIG. 7 (IV)] (FIG. 9, lane 4). The result of silver staining of fraction (IV) is shown in lane 4 in FIG. 8, and the result of RNA binding assay thereof is shown in lane 4 in FIG. 9.

Sequence of HMG-I (HMGA1a), partially purified (P17096 2-107, one chain of several): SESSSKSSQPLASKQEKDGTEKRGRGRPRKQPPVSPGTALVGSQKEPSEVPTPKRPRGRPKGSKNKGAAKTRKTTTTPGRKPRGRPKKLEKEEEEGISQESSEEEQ

Binder: AUCUUCUUGGUGGUGCUCUACAAGUACCGCUGCUACAAGGUGAGGCCCU (ssRNA, 2'-OMe all, 5'-amino) [5'-amino-2'-O-methyl oligo RNA affinity ligand]
- binding result: binds
